{"source": "patent US12180485B2", "about": "“Repressible control of gene expression” (TRUSTEES OF BOSTON UNIVERSITY, priority 2020, dated 2024)", "molecules": {"B1": {"name": "Flp split 374/375: split Flp, aa 1-374 / 375-423 of SEQ ID NO: 60, with tandem or single CaffVHH (protein, listed as Saccharomyces cerevisiae)", "chain": "MSQFDILCKTPPKVLVRQFVERFERPSGEKIASCAAELTYLCWMITHNGTAIKRATFMSYNTIISNSLSFDIVNKSLQFKYKTQKATILEASLKKLIPAWEFTIIPYNGQKHQSDITDIVSSLQLQFESSEEADKGNSHSKKMLKALLSEGESIWEITEKILNSFEYTSRFTKTKTLYQFLFLATFINCGRFSDIKNVDPKSFKLVQNKYLGVIIQCLVTETKTSVSRHIYFFSARGRIDPLVYLDEFLRNSEPVLKRVNRTGNSSSNKQEYQLLKDNLVRSYNKALKKNAPYPIFAIKNGPKSHIGRHLMTSFLSMKGLTELTNVVGNWSDKRASAVARTTYTHQITAIPDHYFALVSRYYAYDPISKEMIAL", "modifications": "split with 375-423; CaffVHH fusions"}, "B2": {"name": "565/566: RfxCas13d split between residues 565/566; N and C fragments plain or fused to CID domains (protein)", "chain 1": "IEKKKSFAKGMGVKSTLVSGSKVYMTTFAEGSDARLEKIVEGDSIRSVNEGEAFSAEMADKNAGYKIGNAKFSHPKGYAVVANNPLYTGPVQQDMLGLKETLEKRYFGESADGNDNICIQVIHNILDIEKILAEYITNAAYAVNNISGLDKDIIGFGKFSTVYTYDEFKDPEHHRAAFNNNDKLINAIKAQYDEFDNFLDNPRLGYFGQAFFSKEGRNYIINYGNECYDILALLSGLRHWVVHNNEEESRISRTWLYNLDKNLDNEYISTLNYLYDRITNELTNSFSKNSAANVNYIAETLGINPAEFAEQYFRFSIMKEQKNLGFNITKLREVMLDRKDMSEIRKNHKVFDSIRTKVYTMMDFVIYRYYIEEDAKVAAANKSLPDNEKSLSEKDIFVINLRGSFNDDQKDALYYDEANRIWRKLENIMHNIKEFRGNKTREYKKKDAPRLPRILPAGRDVSAFSKLMYALTMFLDGKEINDLLTTLINKFDNIQSFLKVMPLIGVNAKFVEEYAFFKDSAKIADELRLIKSFARMGEPIADARRAMYIDAIRILGTNLSYDELK", "chain 2": "ALADTFSLDENGNKLKKGKHGMRNFIINNVISNKRFHYLIRYGDPAHLHEIAKNEAVVKFVLGRIADIQKKQGQNGKNQIDRYYETCIGKDKGKSVSEKVDALTKIITGMNYDQFDKKRSVIEDTGRENAEREKFKKIISLYLTVIYHILKNIVNINARYVIGFHCVERDAQLYKEKGYDINLKKLEEKGFSSVTKLCAGIDETAPDKRKDVEKEMAERAKESIDSLESANPKLYANYIKYSDEKKAEEFTRQINREKAKTALNAYLRNTKWNVIIREDLLRIDNKTCTLFRNKAVHLEVARYVHAYINDIAEVNSYFQLYHYIMQRIIMNERYEKSSGKVSEYFDAVNDEKKYNDRLLKLLCVPFGYCIPRFKNLSIEALFDRNEAAKFDKEKKKVSGNS"}, "B3": {"name": "LwaCas13a: Cas13a from Leptotrichia wadei (protein, listed as Leptotrichia wadei)", "chain": "MKVTKVDGISHKKYIEEGKLVKSTSEENRTSERLSELLSIRLDIYIKNPDNASEEENRIRRENLKKFFSNKVLHLKDSVLYLKNRKEKNAVQDKNYSEEDISEYDLKNKNSFSVLKKILLNEDVNSEELEIFRKDVEAKLNKINSLKYSFEENKANYQKINENNVEKVGGKSKRNIIYDYYRESAKRNDYINNVQEAFDKLYKKEDIEKLFFLIENSKKHEKYKIREYYHKIIGRKNDKENFAKIIYEEIQNVNNIKELIEKIPDMSELKKSQVFYKYYLDKEELNDKNIKYAFCHFVEIEMSQLLKNYVYKRLSNISNDKIKRIFEYQNLKKLIENKLLNKLDTYVRNCGKYNYYLQVGEIATSDFIARNRQNEAFLRNIIGVSSVAYFSLRNILETENENGITGRMRGKTVKNNKGEEKYVSGEVDKIYNENKQNEVKENLKMFYSYDFNMDNKNEIEDFFANIDEAISSIRHGIVHFNLELEGKDIFAFKNIAPSEISKKMFQNEINEKKLKLKIFKQLNSANVFNYYEKDVIIKYLKNTKFNFVNKNIPFVPSFTKLYNKIEDLRNTLKFFWSVPKDKEEKDAQIYLLKNIYYGEFLNKFVKNSKVFFKITNEVIKINKQRNQKTGHYKYQKFENIEKTVPVEYLAIIQSREMINNQDKEEKNTYIDFIQQIFLKGFIDYLNKNNLKYIESNNNNDNNDIFSKIKIKKDNKEKYDKILKNYEKHNRNKEIPHEINEFVREIKLGKILKYTENLNMFYLILKLLNHKELTNLKGSLEKYQSANKEETFSDELELINLLNLDNNRVTEDFELEANEIGKFLDFNENKIKDRKELKKFDTNKIYFDGENIIKHRAFYNIKKYGMLNLLEKIADKAKYKISLKELKEYSNKKNEIEKNYTMQQNLHRKYARPKKDEKFNDEDYKEYEKAIGNIQKYTHLKNKVEFNELNLLQGLLLKILHRLVGYTSIWERDLRFRLKGEFPENHYIEEIFNFDNSKNVKYKSGQIVEKYINFYKELYKDNVEKRSIYSDKKVKKLKQEKKDLYIRNYIAHFNYIPHAEISLLEVLENLRKLLSYDRKLKNAIMKSIVDILKEYGFVATFKIGADKKIEIQTLESEKIVHLKNLKKKKLMTDRNSEELCELVKVMFEYKALE"}}, "assay_type_in_all_cases": "cell-based", "key": {"mCherry [1]": {"test_system": "mCherry", "assay": "Split Cas13 (559/560) or WTCas13 driven by inducible promoters (NFkB, CAGA12, AP1), mCherry knockdown", "details": "NFkB promoter with TGFbeta; CAGA12 promoter with TNFalpha; AP1 promoter with PMA", "from_the_text": "FIG. 13A-13E is a series of schematics and graphs showing the coupling of split Cas13 (559/560) expression to inducible promoters responsive to endogenous signals. Inducible promoters responsive to endogenous signals drove split Cas13 expression for the construction of AND logic gate. FIG. 13A is a schematic showing the transfection compositions of endogenous signal-responsive promoters (e.g., “short response elements” and “miniP”) driving split Cas13d's. […] FIG. 13E is a series of bar graphs showing that orthogonality among the 3 inducible promoters tested. In FIG. 13B-13D, the left-right order of the bars for each design is the same as the top-down order of the legend for each bar graph, and “NT-gRNA” is non-target gRNA. In FIG. 13E, the left-right order of the bars is the same as the top-down order of the legend for each bar graph."}, "NFkB promoter": {"test_system": "NFkB promoter", "assay": "Orthogonality of inducible promoters driving fluorescent proteins", "details": "PMA is the inducer for AP1 promoter", "from_the_text": "Although the propensity of many Cas13 splits to reconstitute spontaneously has led to leaky knockdown activity when coupled with CID systems, transcriptional control of such splits creates an AND gate logic. Inducible promoters (IP) such as WNT, NFkB, CAGA12, and AP1 promoters are available to orthogonally drive split Cas13 expression. In such design, there can only be target knockdown activity when there is input for both promoters. After verification for the ability of these promoters to inducibly drive gene expression using fluorescent proteins (see e.g., FIG. 13E), experiments were conducted with split RfxCas13d pieces and WT RfxCas13d. The chosen split was 559/560 as this split pair is able to achieve target knockdown efficiency more than 80%, and its knockdown ability surpasses that of WT RfxCas13d when coupled with the GIB CID system. Inducible promoter driving the WT Cas13 serves as the positive control (see e.g., FIG. 13A middle panel; see e.g., setting 3 in FIG. 13B, corresponding to “IP-WT” in FIG. 13B-13D). The highest inducibility among the 3 IPs was 30% inducibility with the promoter CAGA12. […] As such, the aforementioned constructs (e.g., split recombinase and IPs) can be integrated into AAVS1 sites and their performance evaluated."}, "recombinase reporter": {"test_system": "recombinase reporter", "assay": "Split recombinases (Cre, Flp, PhiC, vCre) with tandem or single CaffVHH, recombinase reporters, caffeine induction", "details": "48 hours of 100 uM caffeine"}, "HLA-A2": {"test_system": "HLA-A2", "assay": "Endogenous gene knockdown: HLA-A2 antibody staining of HEK 293FT cells transfected with B2M targeting gRNA, flow cytometry", "details": "RAP inducible split pair, compared with WT RfxCas13"}, "mCherry [2]": {"test_system": "mCherry", "assay": "mCherry knockdown by inducible split RfxCas13d (ON switch) in transfected HEK 293 FT cells, flow cytometry"}, "mCherry [3]": {"test_system": "mCherry", "assay": "mCherry knockdown by LwaCas13a and PspCas13b, WT and GIB CID split sites", "from_the_text": "Cas13b was able to facilitate over 70% mCherry knockdown. […] Two additional mCherry-targeting crRNA sequences for LwaCas13a were identified; they both offered moderate mCherry knockdown (around 50% in populations highly expressing Cas13a).\nWith the LwaCas13a and PspCas13b specific mCherry-targeting crRNAs, 12 split sites were screened in PspCas13b, and 11 split sites were screened in LwaCas13a sequences.\nTherefore, it is contemplated herein that the knockdown efficiency of split LwaCas13a can be brought up by optimized crRNA design. Moreover, without wishing to be bound by theory, with a more efficient crRNA, GIB-induced knockdown efficiency by splits 397/398, 488/489, 605/606, 786/787, or 826/827 could also be enhanced."}}, "note": "Entries after “also recorded” stand apart in the source; their conditions may differ.", "data": [{"molecule": "CCCCCCCCCCCCCC(=O)O[C@@H]1[C@@H](C)[C@@]2(O)[C@@H](C=C(CO)C[C@]3(O)C(=O)C(C)=C[C@@H]23)[C@@H]2C(C)(C)[C@]12OC(C)=O", "note": "[PMA, reference compound]", "values": [{"measurement": "mCherry knockdown by split Cas13d or WTCas13 expressed from inducible promoter", "setting": "mCherry [1]", "result": "induced mCherry knockdown"}, {"measurement": "activation of NFkB inducible promoter", "setting": "NFkB promoter", "result": "turned on"}]}, {"molecule": "TNFalpha", "values": [{"measurement": "mCherry knockdown by split Cas13d or WTCas13 expressed from inducible promoter", "setting": "mCherry [1]", "result": "induced mCherry knockdown"}]}, {"molecule": "B1", "values": [{"measurement": "induced recombination, tandem CaffVHH compared to single CaffVHH", "setting": "recombinase reporter", "result": "comparable induced recombination, if not better"}]}, {"molecule": "B2", "values": [{"measurement": "decrease in HLA-A2 expression level", "setting": "HLA-A2", "result": "comparable decrease in HLA-A2 expression level"}, {"measurement": "performance after NES/NLS compartmentalization", "setting": "mCherry [2]; GIB induced split pairs, NES on one moiety, NLS on the other", "result": "high inducibility with minimal leakiness"}, {"measurement": "performance of reversed CID orientation versus original orientation", "setting": "mCherry [2]; GIB: N ss-GAI/GID-ss C, ABA: N ss-PYL/ABI-ss C", "result": "stronger inducibility and weaker leakiness"}, {"measurement": "knockdown across the various CID systems", "setting": "mCherry [2]; split pairs coupled with CID domains, with inducer", "result": "efficient knockdown; also recorded: consistently strong drug-induced knockdown"}]}, {"molecule": "B3", "values": [{"measurement": "mCherry knockdown compared to no crRNA control group", "setting": "mCherry [3]; position-matched LwaCas13a crRNA", "result": "did not achieve mCh knockdown"}, {"measurement": "mCherry knockdown", "setting": "mCherry [3]; two additional mCherry-targeting crRNA sequences, populations highly expressing Cas13a", "result": "around 50%"}]}]}
